Results reported in article PMC4974056, “The proposed channel-enzyme transient receptor potential melastatin 2 does not possess ADP ribose hydrolase activity” (eLife, 2016).
“And” between values parts separate entries of the source, which are not always exact repeats. Equal values may be shown once. Read-outs that look alike come from different tables or passages of the source. One block for each molecule: values may come before it.

Columns and labels:
T5L-TRPM2-Chi2 = T5L-TRPM2-Chi2 (Homo sapiens, UniProt O94759+Q9BW91, G984L/INS985E/Y985D, form not given); assay: Excised inside-out patch-clamp recordings, ADPR-dependent channel activation; assay type: cell-based; details: current in 1 μM ADPR divided by that in 32 μM ADPR; compared to TRPM2
Source text: The noninactivating TRPM5-like pore mutant of TRPM2 (T5L-TRPM2) was contained in the pGEMHE vector ([Tóth and Csanády, 2012]). The NUDT9H domain of TRPM2 was replaced by Chi2A, Chi3 or Chi4 using the native BlpI-site upstream of the domain and an XbaI-site downstream of the Stop-codon in each chimeric construct. Single-base mutations to generate Stop-codons immediately upstream of the hexahistidine tags of Chi3 and Chi4 were then introduced (QuickChange II, Agilent Technologies, Santa Clara, CA, USA), yielding TRPM2-Chi3 and TRPM2-Chi4; TRPM2-Chi2 lacked a His-tag because it was derived from Chi2A.
(§1) Oocytes isolated from anaesthetized Xenopus laevis were digested with collagenase, injected with 10–70 ng cRNA, and stored at 18°C. Recordings were done 2–3 days after injection.
The tip of the patch pipette was filled to ~1 cm height with 140 mM Na-gluconate, 2 mM Mg-gluconate2, 10 mM HEPES (pH 7.4 with NaOH); free [Ca^2+] ~4 μM. The pipette electrode was placed into a 140-mM NaCl-based solution carefully layered on top. […] Macroscopic TRPM2 currents were recorded at 25°C at a membrane potential of −20 mV. […]
Dose dependence of ADPR-induced current activation, expressed as the ratio of mean macroscopic currents observed in the presence of various test [ADPR] […]

[1] = Spontaneous ADPR degradation at basic pH (TLC and Pi assay, no ADPRase); assay type: physicochemical
Description: (§2) ADPRase activities of mitochondrial NUDT9, NUDT9H, and the purified chimeric constructs (Chi2, Chi3S, Chi4S) were quantitated by densitometric detection of the AMP product on TLC sheets. The 20-μl reaction mixtures contained 0.1, 0.5 or 1 μM purified protein, 10 mM Na-ADPR (Sigma-Aldrich, St. Louis, MO, USA), 16 mM MgCl2, and 50 mM reaction buffer (RB). The reaction buffers used were: 50 mM MES, pH 6.5 with NaOH (RB1); 50 mM HEPES, pH 7.1 with NaOH (RB2); 50 mM Tris, pH 8.5 with HCl (RB3); RB1 + 100 mM NaCl (RB4); RB2 + 100 mM NaCl (RB5), and RB3 + 100 mM NaCl (RB6). For the enzyme kinetics experiments on NUDT9 and Chi2, aliquots from the reaction mixtures were collected at the indicated time points; 3 independent experiments were performed for both proteins and each condition, and data are presented as mean ± SEM. All incubations were at room temperature (~25°C). For TLC, 1-μl aliquots of reaction mixtures were placed on Polygram SIL G/UV254 plates (Macherey-Nagel, Düren, Germany), dried and developed in 0.2 M NH4HCO3 in ethanol:water 7:3 (vol/vol). Nucleotides were visualized under UV light. Densitometry of nucleotide intensities was done using ImageJ software.
(§3) The ADPRase activities of the same proteins were additionally tested with a more sensitive assay based on colorimetric detection of Pi (Pi assay) liberated from both ADPRase products AMP and R5P by co-applied alkaline phosphatase (AP) ([Rafty et al., 2002]). AP liberates Pi from AMP and R5P, but not from intact ADPR: thus, Pi is produced from hydrolyzed ADPR at a molar ratio of 1:2. In brief, 150-μl reaction volumes containing 5 or 50 nM purified protein, 5–6 U bovine AP, 1 mM Na-ADPR, 16 mM MgCl2, and 50 mM reaction buffer at various pH values (MES 6.5, HEPES 7.1, Tris 8.5, and Tris 9.0) were incubated for 30 min at either 37°C or room temperature. The reaction was stopped and Pi visualized by adding 850 μl coloring solution (6:1 vol/vol ratio mixture of 0.42% ammonium molybdate tetrahydrate in 1N H2SO4 and 10% L-ascorbic acid) followed by incubation for 20 min at 45°C. Optical density was then measured at 820 nm (NanoPhotometer P300, Implen GmbH, Munich, Germany). Coloring solution was freshly made, and standard curve (0.050–2 mM KH2PO4) obtained, daily. Reactions with 1 mM AMP or R5P (instead of ADPR) served as positive controls. All reagents were from Sigma-Aldrich.

T5L-TRPM2 [2] = molecular target: T1, T5L-TRPM2 (Homo sapiens, UniProt O94759, G984L/INS985E/Y985D); assay: Excised inside-out patch-clamp recordings, ADPR-dependent channel activation; assay type: cell-based
Description: as §1
The tip of the patch pipette was filled to ~1 cm height with 140 mM Na-gluconate, 2 mM Mg-gluconate2, 10 mM HEPES (pH 7.4 with NaOH); free [Ca^2+] ~4 μM. The pipette electrode was placed into a 140-mM NaCl-based solution carefully layered on top. Bath solution contained 140 mM Na-gluconate, 2 mM Mg-gluconate2, 10 mM HEPES (pH 7.1 with NaOH), and either 1 mM EGTA (to obtain 'zero' (~8 nM) Ca^2+) or 1 mM Ca-gluconate2 (to obtain 125 μM free Ca^2+) ([Csanády and Törocsik, 2009]). Na-ADPR was used at final concentrations of 0.32, 1, 3.2, 10, 32, 100, or 1000 μM, and the Na^+ salt of ε-ADPR at 100 μM. Macroscopic TRPM2 currents were recorded at 25°C at a membrane potential of −20 mV. Currents were amplified, filtered at 2 kHz (Axopatch 200B), digitized at 10 kHz (Digidata 1322A), and stored to disk (Pclamp9, Molecular Devices, Sunnyvale, CA, USA).
Dose dependence of ADPR-induced current activation, expressed as the ratio of mean macroscopic currents observed in the presence of various test [ADPR] (I) and 32 (or 100) μM ADPR (Imax) in the same patch, was fitted to the Hill equation (I/Imax = [ADPR]^n/(K^n+[ADPR]^n). Dose dependence of ADPR-activation in the presence of 100 μM ε-ADPR was expressed as the ratio of the currents observed in the presence of various test [ADPR] + 100 μM ε-ADPR (I) and 100 μM ADPR alone (Imax) in the same patch, and was fitted to the Hill equation substituting K' = K(1+[ε-ADPR]/KI) instead of K (K and n fixed to their control values). Macroscopic current decay time courses following removal of ADPR or Ca^2+ were fitted by single exponentials using the method of least squares.

T5L-TRPM2 [3] = molecular target: T1, T5L-TRPM2; set-up: method as in Tóth and Csanády, 2012; details: previously established; ref Tóth and Csanády, 2012; read-out: half-saturating concentration; cited from earlier work
[4] = Enzymatic (ADPRase) activity assay using thin-layer chromatography (TLC); assay type: biochemical; details: for ADPRase activity (conversion of ADPR into AMP and R5P, TLC): 1 μM protein, 16 mM Mg2+, 2-hr incubation, pH 6.5, 7.1 and 8.5, absence or presence of 100 mM NaCl; for ADPRase activity (conversion of ADPR into AMP and R5P, TLC) / kcat: 10 mM ADPR, room temperature; for Enzyme: Table 1 summary of ADPRase activity; for kcat: 0.5 μM protein
Description: as §2

[5] = Solubility of recombinant proteins expressed in E.coli; assay type: physicochemical; details: for Soluble: expressed in E.coli, Table 1
Description: The soluble proteins (NUDT9 and Chi2) were expressed and purified as previously described for mitochondrial NUDT9 ([Tóth et al., 2014]). In brief, bacterial cultures were grown at 37°C in Luria-Bertani medium supplemented with the appropriate antibiotic and induced with 1 mM isopropyl-β-D-1-thiogalactopyranoside (IPTG) upon reaching OD600 of ~0.7. After 3 hr of incubation, cells were harvested and lysed with sonication in 20 mM Tris (pH 8.5 with HCl) / 200 mM NaCl. The cleared supernatant was incubated with Ni-Sepharose 6 Fast Flow resin (GE Healthcare Hungary, Hungary) for 3 hr under gentle rotation. The resin was then washed with lysis buffer supplemented with 20 mM imidazole, and the protein eluted with a buffer containing 20 mM Tris (pH 8.5 with HCl), 100 mM NaCl, and 400 mM imidazole.
Chi3S, Chi4S and NUDT9H were little soluble to insoluble when expressed at 37°C, the majority of the proteins ending up in inclusion bodies, but gave tractable (~1–5%) soluble fractions when induced with 0.1 mM IPTG at 25°C overnight. NUDT9H was then purified as NUDT9. Chi3S and Chi4S were purified using Strep-Tactin chromatography following the manufacturer’s instructions (IBA GmbH, Göttingen, Germany).

[6] = set-up: method as in Perraud et al., 2001, 2003; details: ref Perraud et al., 2001, 2003, cited from earlier work
[7] = Enzymatic activity assay using colorimetric detection of inorganic phosphate (Pi assay, coupled to alkaline phosphatase); assay type: biochemical; details: 5 or 50 nM protein co-applied with 1 mM ADPR and AP, 30 min, pH 6.5-9.0, 37°C or RT
Description: as §3, with “Reactions with 1 mM AMP or R5P (instead of ADPR) served as positive controls. All reagents were from Sigma-Aldrich.” left out
Molecular turnover rates (kcat) for NUDT9 were calculated from the [Pi] released in samples containing 5 nM NUDT9, in which [ADPR] remained >0.9 mM (i.e., saturating [[Perraud et al., 2003]]) throughout the 30-min incubation period, using the equation kcat = 0.5[Pi]released/5 nM/1800 s.

T1 sequence (O94759 whole entry, stated change not applied): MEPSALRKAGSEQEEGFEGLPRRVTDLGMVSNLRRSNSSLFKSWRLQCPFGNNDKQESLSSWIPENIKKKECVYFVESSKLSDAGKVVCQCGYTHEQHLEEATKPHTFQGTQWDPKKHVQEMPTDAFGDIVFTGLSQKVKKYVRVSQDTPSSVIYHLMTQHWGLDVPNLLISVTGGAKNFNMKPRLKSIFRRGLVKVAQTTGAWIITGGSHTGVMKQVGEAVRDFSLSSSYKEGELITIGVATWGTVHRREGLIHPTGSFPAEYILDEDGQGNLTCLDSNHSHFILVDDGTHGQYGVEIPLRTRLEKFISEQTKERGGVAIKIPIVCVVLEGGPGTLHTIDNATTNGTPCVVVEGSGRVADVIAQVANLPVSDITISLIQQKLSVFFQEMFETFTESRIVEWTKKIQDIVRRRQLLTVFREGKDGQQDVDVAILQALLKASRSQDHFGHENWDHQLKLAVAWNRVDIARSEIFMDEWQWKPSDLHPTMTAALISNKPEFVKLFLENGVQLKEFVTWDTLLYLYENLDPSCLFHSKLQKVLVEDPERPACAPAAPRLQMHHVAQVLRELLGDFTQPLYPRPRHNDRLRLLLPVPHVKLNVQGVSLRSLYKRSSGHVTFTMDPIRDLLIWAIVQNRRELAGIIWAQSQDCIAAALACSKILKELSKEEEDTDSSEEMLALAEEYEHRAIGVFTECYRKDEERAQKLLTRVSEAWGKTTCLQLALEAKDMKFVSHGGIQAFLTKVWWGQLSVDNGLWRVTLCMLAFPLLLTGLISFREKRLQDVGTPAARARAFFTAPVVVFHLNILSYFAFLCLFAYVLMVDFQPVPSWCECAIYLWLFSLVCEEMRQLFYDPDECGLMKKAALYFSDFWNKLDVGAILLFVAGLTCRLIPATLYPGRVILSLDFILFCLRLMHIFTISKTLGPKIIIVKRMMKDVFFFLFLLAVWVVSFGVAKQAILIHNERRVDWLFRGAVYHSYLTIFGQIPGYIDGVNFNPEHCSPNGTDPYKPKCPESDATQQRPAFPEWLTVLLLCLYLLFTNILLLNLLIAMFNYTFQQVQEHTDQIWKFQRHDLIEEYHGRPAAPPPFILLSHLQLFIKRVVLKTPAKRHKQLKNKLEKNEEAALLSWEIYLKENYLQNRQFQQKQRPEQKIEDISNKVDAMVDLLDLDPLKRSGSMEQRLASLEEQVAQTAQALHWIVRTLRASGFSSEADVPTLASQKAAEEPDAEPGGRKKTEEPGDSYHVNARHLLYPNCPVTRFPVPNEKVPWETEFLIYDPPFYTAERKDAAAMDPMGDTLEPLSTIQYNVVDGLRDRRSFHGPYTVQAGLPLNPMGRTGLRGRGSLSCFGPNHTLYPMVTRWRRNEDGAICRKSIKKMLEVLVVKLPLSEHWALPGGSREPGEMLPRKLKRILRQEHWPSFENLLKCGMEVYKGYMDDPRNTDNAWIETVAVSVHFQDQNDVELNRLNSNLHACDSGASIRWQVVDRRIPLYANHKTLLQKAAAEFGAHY
T5L-TRPM2-Chi2, sequence (O94759 1-1353, stated change not applied, one chain of several): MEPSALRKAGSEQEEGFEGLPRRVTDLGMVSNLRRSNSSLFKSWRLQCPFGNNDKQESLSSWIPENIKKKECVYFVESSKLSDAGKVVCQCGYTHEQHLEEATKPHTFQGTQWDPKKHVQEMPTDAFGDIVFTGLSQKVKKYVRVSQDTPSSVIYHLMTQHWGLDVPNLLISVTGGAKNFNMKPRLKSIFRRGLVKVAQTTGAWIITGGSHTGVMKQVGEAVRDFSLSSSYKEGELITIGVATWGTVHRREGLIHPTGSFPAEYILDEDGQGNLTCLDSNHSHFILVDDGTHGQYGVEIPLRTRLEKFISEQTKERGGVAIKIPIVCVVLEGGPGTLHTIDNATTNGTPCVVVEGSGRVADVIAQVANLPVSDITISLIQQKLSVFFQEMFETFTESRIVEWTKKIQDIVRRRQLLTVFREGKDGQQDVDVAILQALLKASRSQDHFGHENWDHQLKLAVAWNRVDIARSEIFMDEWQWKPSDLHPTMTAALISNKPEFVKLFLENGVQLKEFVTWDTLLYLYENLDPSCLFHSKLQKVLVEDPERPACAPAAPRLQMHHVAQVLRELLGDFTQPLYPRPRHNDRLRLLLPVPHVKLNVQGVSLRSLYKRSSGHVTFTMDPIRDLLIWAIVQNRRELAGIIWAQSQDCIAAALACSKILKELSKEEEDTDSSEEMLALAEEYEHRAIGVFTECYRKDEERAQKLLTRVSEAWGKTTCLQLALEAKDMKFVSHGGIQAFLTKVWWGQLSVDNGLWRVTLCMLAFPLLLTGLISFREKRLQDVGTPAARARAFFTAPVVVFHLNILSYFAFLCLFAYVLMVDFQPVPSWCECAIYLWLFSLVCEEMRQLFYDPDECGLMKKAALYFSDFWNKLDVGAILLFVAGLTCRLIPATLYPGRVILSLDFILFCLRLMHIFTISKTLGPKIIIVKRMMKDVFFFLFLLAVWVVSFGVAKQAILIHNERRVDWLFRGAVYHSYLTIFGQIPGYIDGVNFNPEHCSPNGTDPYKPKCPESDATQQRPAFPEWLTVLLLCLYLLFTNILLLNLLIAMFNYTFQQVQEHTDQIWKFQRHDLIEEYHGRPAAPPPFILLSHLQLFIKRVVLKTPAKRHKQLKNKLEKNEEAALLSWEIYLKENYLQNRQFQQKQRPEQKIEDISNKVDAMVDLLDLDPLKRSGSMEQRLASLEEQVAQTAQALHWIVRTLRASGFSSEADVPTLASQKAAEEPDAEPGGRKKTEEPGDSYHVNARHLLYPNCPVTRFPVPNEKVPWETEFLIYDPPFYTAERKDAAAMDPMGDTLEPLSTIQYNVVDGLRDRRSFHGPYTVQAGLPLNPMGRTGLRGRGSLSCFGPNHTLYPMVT

Fractional activation by 1 μM ADPR (T5L-TRPM2-Chi2): reduced
spontaneous hydrolysis of applied ADPR (Pi assay) ([1]; 1 mM ADPR, 30 min, with AP, with or without Chi4S or NUDT9H): ~ 1%
spontaneous degradation ([1]; 25°C and pH 8.5, 20 min): ~ 0.3%
time constant for spontaneous ADPR hydrolysis ([1]; 25°C and pH 8.5, assuming exponential decay): ~ 100 hr
decay time constant of spontaneous degradation ([1]; 25°C, pH 8.5): about 100 h
spontaneous degradation ([1]; 25°C, pH 8.5, 2 hr): ~ 2%
ADPR degraded spontaneously ([1]; 25°C, pH 8.5, 24 hr): ~ 20%
spontaneous degradation ([1]; 37°C and pH 9, 30 min): ~ 1%
AMP which forms spontaneously ([1]; 20 min, pH 8.5, 10 mM ADPR): ~ 30 μM
stability ([1]; neutral or slightly acidic pH): inherently stable
n (Hill slope for ADPR binding) (T5L-TRPM2 [2]; Figure 8B): 1.3±0.1
EC50 (T5L-TRPM2 [2]; inside-out patches from Xenopus laevis oocytes, saturating Ca2+, −20 mV, Hill fit (Figure 7H), read-out: K1/2 for ADPR-induced current activation): 1300 ± 100 nM
Molecule: Nc1ncnc2c1ncn2C1OC(COP(=O)(O)OP(=O)(O)OCC2OC(O)C(O)C2O)C(O)C1O (centres unmarked) [ADPR, adenosine 5'-diphosphoribose]
EC50 (T5L-TRPM2 [3]): 1000 nM

Enzyme [4]: No
Molecule: NUDT9H: isolated C-terminal cytosolic NUDT9-homology domain of TRPM2, recombinant, hexahistidine tag
ADPRase activity (conversion of ADPR into AMP and R5P, TLC) [4]: failed to hydrolyze the nucleotide
stability of purified soluble preparation ([5]; 4°C): precipitated overnight at 4 °C
Soluble [5]: No^¶
reported turnover rate ([6]; isolated NUDT9H): ~ 0.1 s^-1
kcat ([6]; pH 9 and 37°C): ~ 0.06 s^-1
reported enzymatic activity, lower than that of NUDT9 [6]: about 100 fold
Pi release [7]: did not result in any significant Pi release

Enzyme [4]: Yes
B1: NUDT9: soluble, Mg2+-dependent mitochondrial ADPR pyrophosphatase, recombinant, C-terminal hexahistidine tag (protein)
chain: ENSHNKARTSPYPGSKVERSQVPNEKVGWLVEWQDYKPVEYTAVSVLAGPRWADPQISESNFSPKFNEKDGHVERKSKNGLYEIENGRPRNPAGRTGLVGRGLLGRWGPNHAADPIITRWKRDSSGNKIMHPVSGKHILQFVAIKRKDCGEWAIPGGMVDPGEKISATLKREFGEEALNSLQKTSAEKREIEEKLHKLFSQDHLVIYKGYVDDPRNTDNAWMETEAVNYHDETGEIMDNLMLEAGDDAGKVKWVDINDKLKLYASHSQFIKLVAEKRDAHWSEDSEADCHAL
modifications: left off: His6, C-terminal, kept
notes: soluble, Mg2+-dependent mitochondrial ADPR pyrophosphatase, recombinant, C-terminal hexahistidine tag
ADPRase activity (conversion of ADPR into AMP and R5P, TLC) [4]: active ADPRases
decrease of kcat from pH 8.5 to 6.5 ([4]; TLC kinetics): ~ 1.4 fold
kcat ([4]; pH 6.5 (RB1)): 6.4 s⁻¹
kcat ([4]; pH 7.1 (RB2)): 7.6 s⁻¹
kcat ([4]; pH 8.5 (RB3)): 9 s⁻¹ and 9.0 s⁻¹
Soluble [5]: Yes
kcat ([6]; previously reported values): ~ 8 s^-1
